Results taken from patent publication CN113912709A (SHENZHEN NATIONAL CLINICAL RES CENTER FOR INFECTIOUS …, dated 2022).
Residue numbers refer to the chain shown, from its start.

Key:
Assay in all cases: SPR, Biacore 8K, RBD on CM5 chip, IgG injected, 1:1 model
[1] = target: T1, SARS-CoV-2 Kappa variant RBD protein (L452R and E484Q) (SARS-CoV-2, UniProt P0DTC2 319-541)
T1 construct: domain: RBD; also called L452R和E484Q

[2] = target: T2, SARS-CoV-2 Delta variant RBD protein (L452R and T478K) (SARS-CoV-2, UniProt P0DTC2 319-541)
T2 construct: domain: RBD; also called L452R和T478K

[3] = target: T3, SARS-CoV-2 RBD protein E484Q mutant (SARS-CoV-2, UniProt P0DTC2 319-541)
T3 construct: domain: RBD

[4] = target: T4, SARS-CoV-2 RBD protein T478K mutant (SARS-CoV-2, UniProt P0DTC2 319-541)
T4 construct: domain: RBD

B1: VacW-209 (antibody, V domains shown)
VH: QVQLVESGGGVVQPGRSLRLSCAASGFTFSSIAMHWVRQAPGKGLEWVAVMSFDGSIKYYGDSVKGRFTISRDNSKSTLYLQMNSLRAEDTAVYYCARGVQGYYDRSGYYNLDYNYGMDVWGQGTTVTVSS
VL: QSVLTQPPSVSGAPGQRVTISCTGSSSNIGAGYDVHWYQQLPGTAPKLLIYGNSNRPSGVPDRFSGSKSGTSASLAITGLQAEDEADYYCQSYDSSLSGWVFGGGTKLTVL
Kd [1]: 0.0234 nM
Kd [2]: 0.0467 nM
Kd [3]: 0.033 nM
Kd [4]: 0.023 nM

B2: VacW-201 (antibody, V domains shown)
VH: EVQLVESGGGLVQPGGSLRLSCAASGFTFSSYWMNWVRQAPGKGLEWVANIKQDGSEKYYVDSVKGRFTISRDNAKNSLYLQMNSLRAEDTAVYYCARMEYPYGGVDYWGQGTLVTVSS
VL: NFMLTQPHSVSESPGKTVTISCTGSSGSIASNYVQWYQQRPGSAPTTVIYEDNQRPSGVPDRFSGSIDSSSNSASLTISGLKTEDEADYYCQSYDSSNRNWVFGGGTKLTVL
Kd [1]: 1.71 nM
Kd [2]: 2.14 nM
Kd [3]: 2.25 nM
Kd [4]: 1.64 nM

B3: VacW-215 (antibody, V domains shown)
VH: EVQLVESGGGLIQPGGSLRLSCAASGFTVSSNYMSWVRQAPGKGLEWVSVIYSGGSTYYADSVKGRFTISRDNSKNTLYLQMNSLRAEDTAVYYCARSTWLRGGFDYWGQGTLVTVSS
VL: B2 VL with R99H, N100F, W101Y, G105T, L109V
Kd [1]: 0.676 nM
Kd [2]: 1.02 nM
Kd [3]: 0.967 nM
Kd [4]: 0.683 nM

B4: VacW-212 (antibody, V domains shown)
VH: B2 VH with G55E, Y80F, A88V, V106I, S119A
VL: B2 VL
Kd [1]: 1.32 nM
Kd [2]: 1.83 nM
Kd [3]: 1.74 nM
Kd [4]: 1.22 nM

B5: VacW-105 (antibody, V domains shown)
VH: QVQLVQSGAEVKKPGSSVKVSCKASGGTFRSYTISWVRQAPGQGLEWMGRILPILGIANYAQKFQGRVTITADKSTSTAYMELSSLRSEDTAVYYCARVTGAPVESAAWFDPWGQGTLVTVSS
VL: not shown
Kd [1]: 4.13 nM
Kd [2]: 5.1 nM
Kd [3]: 5.22 nM
Kd [4]: 3.37 nM

B6: VacW-138 (antibody, V domains shown)
VH: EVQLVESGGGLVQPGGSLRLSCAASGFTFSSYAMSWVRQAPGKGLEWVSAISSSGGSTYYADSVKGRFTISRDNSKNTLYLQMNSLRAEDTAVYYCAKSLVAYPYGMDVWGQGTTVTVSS
VL: AIQLTQSPFSLSASVGDRVTITCRASQGISSALAWYQQKPGKAPKLLIYDASSLESGVPSRFSGSGSGTDFTLTISSLQPEDFATYFCQQVDTYQFTFGPGTKVDIK
Kd [1]: 3.17 nM
Kd [2]: 3.11 nM
Kd [3]: 3.12 nM
Kd [4]: 1.75 nM
